Results reported in the RNAGym collection of RNA variant scans (doi:10.1021/acssynbio.7b00057).

B1: Pistol ribozyme (parent)
chain: GGGUCGUUGUUCCAUAAUCGCGUGGAUAUGGCACGCAAGUUUCUACCGGGCACCGUAAAUGUCCGACUGGAGCCGUUCGGGCGGCUAUAAACAGACCUCAGGCCCGAAGCGUGGCGGCACCUGCCGCCGGUGGUAAAAAAGAUCGGAAGAGCACACGUCU

Variants of: B1
Experiment: aptazyme ON/OFF ratio, guanine; higher = stronger switching; co-transcriptional cleavage with and without guanine

Variant | aptazyme ON/OFF ratio
GGGUCGAUUAAGUAUAAUCGCGUGGAUAUGGCACGCAAGUUUCUACCGGGCACCGUAAAUGUCCGACUGGAGCCGUUCGGGCGGCUAUAAACAGACCUCAGGCCCGAAGCGUGGCGGCACCUGCCGCCGGUGGUAAAAAAGAUCGGAAGAGCACACGUCU | 1.19
GGGUCGAUUAAGAAUAAUCGCGUGGAUAUGGCACGCAAGUUUCUACCGGGCACCGUAAAUGUCCGACUGGAGCCGUUCGGGCGGCUAUAAACAGACCUCAGGCCCGAAGCGUGGCGGCACCUGCCGCCGGUGGUAAAAAAGAUCGGAAGAGCACACGUCU | 1.11
GGGUCGAUUAAGGAUAAUCGCGUGGAUAUGGCACGCAAGUUUCUACCGGGCACCGUAAAUGUCCGACUGGAGCCGUUCGGGCGGCUAUAAACAGACCUCAGGCCCGAAGCGUGGCGGCACCUGCCGCCGGUGGUAAAAAAGAUCGGAAGAGCACACGUCU | 1.25
GGGUCGAUUAAACAUAAUCGCGUGGAUAUGGCACGCAAGUUUCUACCGGGCACCGUAAAUGUCCGACUGGAGCCGUUCGGGCGGCUAUAAACAGACCUCAGGCCCGAAGCGUGGCGGCACCUGCCGCCGGUGGUAAAAAAGAUCGGAAGAGCACACGUCU | 1.43
GGGUCGAUUAAUCAUAAUCGCGUGGAUAUGGCACGCAAGUUUCUACCGGGCACCGUAAAUGUCCGACUGGAGCCGUUCGGGCGGCUAUAAACAGACCUCAGGCCCGAAGCGUGGCGGCACCUGCCGCCGGUGGUAAAAAAGAUCGGAAGAGCACACGUCU | 1.28
GGGUCGAUUAAGCAUAAUCGCGUGGAUAUGGCACGCAAGUUUCUACCGGGCACCGUAAAUGUCCGACUGGAGCCGUUCGGGCGGCUAUAAACAGACCUCAGGCCCGAAGCGUGGCGGCACCUGCCGCCGGUGGUAAAAAAGAUCGGAAGAGCACACGUCU | 1.26
GGGUCGAUUAACCAUAAUCGCGUGGAUAUGGCACGCAAGUUUCUACCGGGCACCGUAAAUGUCCGACUGGAGCCGUUCGGGCGGCUAUAAACAGACCUCAGGCCCGAAGCGUGGCGGCACCUGCCGCCGGUGGUAAAAAAGAUCGGAAGAGCACACGUCU | 1.43
GGGUCGAUUAUUAAUAAUCGCGUGGAUAUGGCACGCAAGUUUCUACCGGGCACCGUAAAUGUCCGACUGGAGCCGUUCGGGCGGCUAUAAACAGACCUCAGGCCCGAAGCGUGGCGGCACCUGCCGCCGGUGGUAAAAAAGAUCGGAAGAGCACACGUCU | 1.29
GGGUCGAUUAUUGAUAAUCGCGUGGAUAUGGCACGCAAGUUUCUACCGGGCACCGUAAAUGUCCGACUGGAGCCGUUCGGGCGGCUAUAAACAGACCUCAGGCCCGAAGCGUGGCGGCACCUGCCGCCGGUGGUAAAAAAGAUCGGAAGAGCACACGUCU | 1.13
GGGUCGAUUAUUUAUAAUCGCGUGGAUAUGGCACGCAAGUUUCUACCGGGCACCGUAAAUGUCCGACUGGAGCCGUUCGGGCGGCUAUAAACAGACCUCAGGCCCGAAGCGUGGCGGCACCUGCCGCCGGUGGUAAAAAAGAUCGGAAGAGCACACGUCU | 1.17
GGGUCGAUUAUCCAUAAUCGCGUGGAUAUGGCACGCAAGUUUCUACCGGGCACCGUAAAUGUCCGACUGGAGCCGUUCGGGCGGCUAUAAACAGACCUCAGGCCCGAAGCGUGGCGGCACCUGCCGCCGGUGGUAAAAAAGAUCGGAAGAGCACACGUCU | 1.4
GGGUCGAUUAUGAAUAAUCGCGUGGAUAUGGCACGCAAGUUUCUACCGGGCACCGUAAAUGUCCGACUGGAGCCGUUCGGGCGGCUAUAAACAGACCUCAGGCCCGAAGCGUGGCGGCACCUGCCGCCGGUGGUAAAAAAGAUCGGAAGAGCACACGUCU | 1.25
GGGUCGAUUAUGGAUAAUCGCGUGGAUAUGGCACGCAAGUUUCUACCGGGCACCGUAAAUGUCCGACUGGAGCCGUUCGGGCGGCUAUAAACAGACCUCAGGCCCGAAGCGUGGCGGCACCUGCCGCCGGUGGUAAAAAAGAUCGGAAGAGCACACGUCU | 1.26
GGGUCGAUUAUGUAUAAUCGCGUGGAUAUGGCACGCAAGUUUCUACCGGGCACCGUAAAUGUCCGACUGGAGCCGUUCGGGCGGCUAUAAACAGACCUCAGGCCCGAAGCGUGGCGGCACCUGCCGCCGGUGGUAAAAAAGAUCGGAAGAGCACACGUCU | 1.11
GGGUCGAUUAUAGAUAAUCGCGUGGAUAUGGCACGCAAGUUUCUACCGGGCACCGUAAAUGUCCGACUGGAGCCGUUCGGGCGGCUAUAAACAGACCUCAGGCCCGAAGCGUGGCGGCACCUGCCGCCGGUGGUAAAAAAGAUCGGAAGAGCACACGUCU | 1.07
GGGUCGAUUAUAUAUAAUCGCGUGGAUAUGGCACGCAAGUUUCUACCGGGCACCGUAAAUGUCCGACUGGAGCCGUUCGGGCGGCUAUAAACAGACCUCAGGCCCGAAGCGUGGCGGCACCUGCCGCCGGUGGUAAAAAAGAUCGGAAGAGCACACGUCU | 1.19
GGGUCGAUUAUAAAUAAUCGCGUGGAUAUGGCACGCAAGUUUCUACCGGGCACCGUAAAUGUCCGACUGGAGCCGUUCGGGCGGCUAUAAACAGACCUCAGGCCCGAAGCGUGGCGGCACCUGCCGCCGGUGGUAAAAAAGAUCGGAAGAGCACACGUCU | 1.1
GGGUCGAUUUUCAAUAAUCGCGUGGAUAUGGCACGCAAGUUUCUACCGGGCACCGUAAAUGUCCGACUGGAGCCGUUCGGGCGGCUAUAAACAGACCUCAGGCCCGAAGCGUGGCGGCACCUGCCGCCGGUGGUAAAAAAGAUCGGAAGAGCACACGUCU | 1.29

Variant | aptazyme ON/OFF ratio
GGGUCGAUUUUCGAUAAUCGCGUGGAUAUGGCACGCAAGUUUCUACCGGGCACCGUAAAUGUCCGACUGGAGCCGUUCGGGCGGCUAUAAACAGACCUCAGGCCCGAAGCGUGGCGGCACCUGCCGCCGGUGGUAAAAAAGAUCGGAAGAGCACACGUCU | 1.05
GGGUCGAUUUUCUAUAAUCGCGUGGAUAUGGCACGCAAGUUUCUACCGGGCACCGUAAAUGUCCGACUGGAGCCGUUCGGGCGGCUAUAAACAGACCUCAGGCCCGAAGCGUGGCGGCACCUGCCGCCGGUGGUAAAAAAGAUCGGAAGAGCACACGUCU | 1.35
GGGUCGAUUAAAGAUAAUCGCGUGGAUAUGGCACGCAAGUUUCUACCGGGCACCGUAAAUGUCCGACUGGAGCCGUUCGGGCGGCUAUAAACAGACCUCAGGCCCGAAGCGUGGCGGCACCUGCCGCCGGUGGUAAAAAAGAUCGGAAGAGCACACGUCU | 1.14
GGGUCGAUUAAAUAUAAUCGCGUGGAUAUGGCACGCAAGUUUCUACCGGGCACCGUAAAUGUCCGACUGGAGCCGUUCGGGCGGCUAUAAACAGACCUCAGGCCCGAAGCGUGGCGGCACCUGCCGCCGGUGGUAAAAAAGAUCGGAAGAGCACACGUCU | 1.3
GGGUCGAUUAAAAAUAAUCGCGUGGAUAUGGCACGCAAGUUUCUACCGGGCACCGUAAAUGUCCGACUGGAGCCGUUCGGGCGGCUAUAAACAGACCUCAGGCCCGAAGCGUGGCGGCACCUGCCGCCGGUGGUAAAAAAGAUCGGAAGAGCACACGUCU | 1.1
GGGUCGAUUUUUCAUAAUCGCGUGGAUAUGGCACGCAAGUUUCUACCGGGCACCGUAAAUGUCCGACUGGAGCCGUUCGGGCGGCUAUAAACAGACCUCAGGCCCGAAGCGUGGCGGCACCUGCCGCCGGUGGUAAAAAAGAUCGGAAGAGCACACGUCU | 1.34
GGGUCGAUUAUUCAUAAUCGCGUGGAUAUGGCACGCAAGUUUCUACCGGGCACCGUAAAUGUCCGACUGGAGCCGUUCGGGCGGCUAUAAACAGACCUCAGGCCCGAAGCGUGGCGGCACCUGCCGCCGGUGGUAAAAAAGAUCGGAAGAGCACACGUCU | 1.22
GGGUCGAUUAUGCAUAAUCGCGUGGAUAUGGCACGCAAGUUUCUACCGGGCACCGUAAAUGUCCGACUGGAGCCGUUCGGGCGGCUAUAAACAGACCUCAGGCCCGAAGCGUGGCGGCACCUGCCGCCGGUGGUAAAAAAGAUCGGAAGAGCACACGUCU | 1.28
GGGUCGAUUAUACAUAAUCGCGUGGAUAUGGCACGCAAGUUUCUACCGGGCACCGUAAAUGUCCGACUGGAGCCGUUCGGGCGGCUAUAAACAGACCUCAGGCCCGAAGCGUGGCGGCACCUGCCGCCGGUGGUAAAAAAGAUCGGAAGAGCACACGUCU | 1.47
GGGUCGAUUAAUUAUAAUCGCGUGGAUAUGGCACGCAAGUUUCUACCGGGCACCGUAAAUGUCCGACUGGAGCCGUUCGGGCGGCUAUAAACAGACCUCAGGCCCGAAGCGUGGCGGCACCUGCCGCCGGUGGUAAAAAAGAUCGGAAGAGCACACGUCU | 1.06
GGGUCGAUUAAUGAUAAUCGCGUGGAUAUGGCACGCAAGUUUCUACCGGGCACCGUAAAUGUCCGACUGGAGCCGUUCGGGCGGCUAUAAACAGACCUCAGGCCCGAAGCGUGGCGGCACCUGCCGCCGGUGGUAAAAAAGAUCGGAAGAGCACACGUCU | 1.15
GGGUCGAUUAAUAAUAAUCGCGUGGAUAUGGCACGCAAGUUUCUACCGGGCACCGUAAAUGUCCGACUGGAGCCGUUCGGGCGGCUAUAAACAGACCUCAGGCCCGAAGCGUGGCGGCACCUGCCGCCGGUGGUAAAAAAGAUCGGAAGAGCACACGUCU | 1.3
GGGUCGAUUAUCUAUAAUCGCGUGGAUAUGGCACGCAAGUUUCUACCGGGCACCGUAAAUGUCCGACUGGAGCCGUUCGGGCGGCUAUAAACAGACCUCAGGCCCGAAGCGUGGCGGCACCUGCCGCCGGUGGUAAAAAAGAUCGGAAGAGCACACGUCU | 1.35
GGGUCGAUUAUCGAUAAUCGCGUGGAUAUGGCACGCAAGUUUCUACCGGGCACCGUAAAUGUCCGACUGGAGCCGUUCGGGCGGCUAUAAACAGACCUCAGGCCCGAAGCGUGGCGGCACCUGCCGCCGGUGGUAAAAAAGAUCGGAAGAGCACACGUCU | 1.05
GGGUCGAUUAUCAAUAAUCGCGUGGAUAUGGCACGCAAGUUUCUACCGGGCACCGUAAAUGUCCGACUGGAGCCGUUCGGGCGGCUAUAAACAGACCUCAGGCCCGAAGCGUGGCGGCACCUGCCGCCGGUGGUAAAAAAGAUCGGAAGAGCACACGUCU | 1.08
GGGUCGAUUUUUAAUAAUCGCGUGGAUAUGGCACGCAAGUUUCUACCGGGCACCGUAAAUGUCCGACUGGAGCCGUUCGGGCGGCUAUAAACAGACCUCAGGCCCGAAGCGUGGCGGCACCUGCCGCCGGUGGUAAAAAAGAUCGGAAGAGCACACGUCU | 1.19
GGGUCGAUUUUUUAUAAUCGCGUGGAUAUGGCACGCAAGUUUCUACCGGGCACCGUAAAUGUCCGACUGGAGCCGUUCGGGCGGCUAUAAACAGACCUCAGGCCCGAAGCGUGGCGGCACCUGCCGCCGGUGGUAAAAAAGAUCGGAAGAGCACACGUCU | 1.21
GGGUCGAUUUUUGAUAAUCGCGUGGAUAUGGCACGCAAGUUUCUACCGGGCACCGUAAAUGUCCGACUGGAGCCGUUCGGGCGGCUAUAAACAGACCUCAGGCCCGAAGCGUGGCGGCACCUGCCGCCGGUGGUAAAAAAGAUCGGAAGAGCACACGUCU | 1.16
